{
  "source": "paper PMC13121748",
  "about": "“Phase separation of PGL-3 driven by structured domains that oligomerize and interact with RGG motifs” (EMBO Reports, 2025)",
  "binders": {"B1": {"name": "PGL-3(RGG) synthetic peptide spanning the RGG region (peptide)", "chain": "GTSGRGSYGGGRGGDRGGRGAYGGDRGRGGSGDGSRGYRGGDRGGRGSYGEGSRGYQGGRAGFFGGSRGGS", "modifications": "trace-labelled with Alexa Fluor 647 (NHS ester) in the FA crosslinking and partitioning; biotinylated with NHS-PEG12-Biotin when immobilised in BLI"}, "B2": {"name": "full-length, untagged PGL-3 (natural protein, C. elegans, UniProt G5EBV6 1-693, looked up)", "chain": "MEANKRQIVEVDGIKSYFFPHLAHYLASNDELLVNNIAQANKLAAFVLGATDKRPSNEEIAEMILPNDSSAYVLAAGMDVCLILGDDFRPKFDSGAEKLSQLGQAHDLAPIIDDEKKISMLARKTKLKKSNDAKILQVLLKVLGAEEAEEKFVELSELSSALDLDFDVYVLAKLLGFASEELQEEIEIIRDNVTDAFEACKPLLKKLMIEGPKIDSVDPFTQLLLTPQEESIEKAVSHIVARFEEASAVEDDESLVLKSQLGYQLIFLVVRSLADGKRDASRTIQSLMPSSVRAEVFPGLQRSVFKSAVFLASHIIQVFLGSMKSFEDWAFVGLAEDLESTWRRRAIAELLKKFRISVLEQCFSQPIPLLPQSELNNETVIENVNNALQFALWITEFYGSESEKKSLNQLQFLSPKSKNLLVDSFKKFAQGLDSKDHVNRIIESLEKSSSSEPSATAKQTTTSNGPTTVSTAAQVVTVEKMPFSRQTIPCEGTDLANVLNSAKIIGESVTVAAHDVIPEKLNAEKNDNTPSTASPVQFSSDGWDSPTKSVALPPKISTLEEEQEEDTTITKVSPQPQERTGTAWGSGDATPVPLATPVNEYKVSGFGAAPVASGFGQFASSNGTSGRGSYGGGRGGDRGGRGAYGGDRGRGGSGDGSRGYRGGDRGGRGSYGEGSRGYQGGRAGFFGGSRGGS", "notes": "PGL-3, C. elegans P granule protein, full length (D1, D2, internal IDR, C-terminal RGG region; residues to 693); also called PGL-3(FL); FL; not shown: 6xHis-MBP-6xHis, N-terminal, cleaved"}, "B3": {"name": "PGL-3(D1-D2) (domain or fragment, C. elegans, UniProt G5EBV6 1-447, looked up)", "chain": "MEANKRQIVEVDGIKSYFFPHLAHYLASNDELLVNNIAQANKLAAFVLGATDKRPSNEEIAEMILPNDSSAYVLAAGMDVCLILGDDFRPKFDSGAEKLSQLGQAHDLAPIIDDEKKISMLARKTKLKKSNDAKILQVLLKVLGAEEAEEKFVELSELSSALDLDFDVYVLAKLLGFASEELQEEIEIIRDNVTDAFEACKPLLKKLMIEGPKIDSVDPFTQLLLTPQEESIEKAVSHIVARFEEASAVEDDESLVLKSQLGYQLIFLVVRSLADGKRDASRTIQSLMPSSVRAEVFPGLQRSVFKSAVFLASHIIQVFLGSMKSFEDWAFVGLAEDLESTWRRRAIAELLKKFRISVLEQCFSQPIPLLPQSELNNETVIENVNNALQFALWITEFYGSESEKKSLNQLQFLSPKSKNLLVDSFKKFAQGLDSKDHVNRIIESLEK", "modifications": "unlabeled in mass photometry; trace-labelled with DyLight 488 (partitioning) or Alexa Fluor 647 (pelleting) by NHS ester", "notes": "PGL-3, C. elegans, the first 447 amino acids, which span the folded domains D1 and D2; also called D1-D2 domain; not shown: 6xHis-MBP-6xHis, N-terminal, cleaved"}, "B4": {"name": "poly(U) 30-nt RNA (ssRNA)", "RNA": "UUUUUUUUUUUUUUUUUUUUUUUUUUUUUU"}},
  "key": {"[1]": {"target": "T1, PGL-3(D1) (C. elegans, trace-labelled with DyLight 488 (NHS ester) in the FA crosslinking; biotinylated with NHS-PEG12-Biotin when immobilised in BLI)", "T1 chain": "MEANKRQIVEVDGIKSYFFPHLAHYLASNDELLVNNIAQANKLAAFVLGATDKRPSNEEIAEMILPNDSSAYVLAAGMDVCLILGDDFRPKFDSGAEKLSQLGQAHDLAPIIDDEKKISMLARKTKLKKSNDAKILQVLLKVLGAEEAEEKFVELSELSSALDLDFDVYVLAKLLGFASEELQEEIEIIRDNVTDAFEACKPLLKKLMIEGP", "test": "BLI"}, "[2]": {"target": "PGL-3(D1-D2) (C. elegans) (UniProt G5EBV6)"}, "[3]": {"target": "T1, PGL-3(D1)", "test": "BLI; biotinylated D1 on streptavidin tips, RGG peptide in solution; 125 mM NaCl, 0.01 mg/ml BSA, 0.02% Tween-20, 25 mM HEPES pH 7.5; 1:1 binding model; Octet Red96"}, "[4]": {"target": "PGL-3(D1-D2) (C. elegans) (UniProt G5EBV6)", "remark": "listed apart in the source"}, "[5]": {"target": "PGL-3(D1-D2) (C. elegans) (UniProt G5EBV6)", "remark": "listed apart in the source"}, "[6]": {"target": "the molecule itself", "test": "cross-linking; XL-MS: 7.5 uM full-length PGL-3, 2 mM DSBU, 1 h room temperature, 25 mM HEPES pH 7.5, 125 mM NaCl (condensing) or 500 mM NaCl (non-condensing); trypsin digest, LC-MS/MS, Scout search"}, "[7]": {"target": "the molecule itself", "test": "mass photometry; unlabeled D1-D2 at 50 to 100 nM in 125 mM NaCl, 25 mM HEPES pH 7.5, TwoMP (Refeyn)"}, "[8]": {"target": "T2, PGL-3 RGG region peptide (native) (Caenorhabditis elegans, UniProt G5EBV6 623-693)", "T2 sequence": "B1 chain", "test": "BLI; RNA on tip, RGG peptide in solution; 1:1 fit; KD ~2-fold higher than RGG:D1, value not given; BLI: 25 mM HEPES pH 7.5, 125 mM NaCl, 0.01 mg/ml BSA, 0.02% Tween-20, temperature not stated; condensate assays at 125 mM NaCl", "settings": "tags: none; unlabeled in BLI; label: 5' biotin; single strand"}},
  "note": "Where “and” joins values, the source holds several entries; their conditions need not be identical. Equal entries are not always repeated.",
  "data": [
    {"binder": "B1", "values": [
      {"measurement": "Kd", "setting": "[1]", "value": 1630, "unit": "nM"},
      {"measurement": "viscosity of D1-D2 condensates formed with equimolar RGG peptide against buffer (embedded beads)", "setting": "[2]", "value": 1.25, "unit": "fold"},
      {"measurement": "fold faster koff than RGG:poly(U) RNA", "setting": "[3]", "value": 10, "unit": "fold"},
      {"measurement": "fold faster kon than RGG:poly(U) RNA", "setting": "[3]", "value": 20, "unit": "fold"},
      {"measurement": "fold lower KD than RGG:poly(U) RNA", "setting": "[3]", "value": 2, "unit": "fold"},
      {"measurement": "fraction of D1-D2 in the pellet (dense phase) with equimolar RGG peptide against buffer control", "setting": "[4]", "value": 15, "unit": "%"},
      {"measurement": "partition coefficient of the RGG peptide in D1-D2 condensates (5 uM each, in trans)", "setting": "[5]", "value": 1.3}
    ]},
    {"binder": "B2", "values": [
      {"measurement": "binding result", "setting": "[6]", "value": "binds"}
    ]},
    {"binder": "B3", "values": [
      {"measurement": "stoichiometry N", "setting": "[7]", "value": "2 and 4 and 6"}
    ]},
    {"binder": "B4", "values": [
      {"measurement": "binding result", "setting": "[8]", "value": "binds"}
    ]}
  ]
}
